Assay results reported in US20050106100.

Legend:
[1] = molecular target: T1, Ac-PLG-Hphe-OL-Ahxh-Ac[C14]
T1 chain: PLGXXL

Ac-PLG˜LRL-Ahxh-Hynic = molecular target: T2, Ac-PLG˜LRL-Ahxh-Hynic (not fully specified)
T2 chain: PLGLRL

[2] = molecular target: T3, Ac-NGlu-PLG˜Hphe-YL-Ahxh-Ac[C14] (not fully specified)
T3 chain: XPLGXYL

Ac-LRY˜Cha-TA-Ahxh-Hynic = molecular target: T4, Ac-LRY˜Cha-TA-Ahxh-Hynic (not fully specified)
T4 chain: LRYXTA

Ac-P-Cit-G-Hphe-LA-Hynic = molecular target: T5, Ac-P-Cit-G-Hphe-LA-Hynic
T5 chain: PXGXLA

Ac-PLG˜LLA-Ahxh-Hynic = molecular target: T6, Ac-PLG˜LLA-Ahxh-Hynic (not fully specified)
T6 chain: PLGLLA

Ac-PL-DAla˜LL-Ahxh-Hynic = molecular target: T7, Ac-PL-DAla˜LL-Ahxh-Hynic (not fully specified)
T7 chain: PLALL

Ac-PLG˜LYA-Ahxh-Hynic = molecular target: T8, Ac-PLG˜LYA-Ahxh-Hynic (not fully specified)
T8 chain: PLGLYA

[3] = molecular target: T9, Ac-PL-NLys˜LL-Ahxh-Ac[C14] (not fully specified)
T9 chain: PLXLL

[4] = molecular target: T10, Ac-P-Cit-Cit-LTA-Ahxh-Hynic
T10 chain: PXXLTA

[5] = molecular target: T11, Ac-PLG˜Hphe-OLEE-Ahx-Hynic
T11 chain: PLGXXLEE

[6] = molecular target: T12, Ac-DArg-P-Aib-G˜Hphe-LA-Ahxh-Hynic (not fully specified)
T12 chain: RPXGXLA

[7] = molecular target: T13, Ac-PLG˜S(OBn)-LL-Ahxh-Hynic
T13 chain: PLGSLL

Ac-PLG˜LR-Ahxh-Hynic = molecular target: T14, Ac-PLG˜LR-Ahxh-Hynic (not fully specified)
T14 chain: PLGLR

[8] = molecular target: T15, Ac-P-Cit-G˜Hphe-LA-Ahxh-Hynic (not fully specified)
T15 chain: PXGXLA

[9] = molecular target: T16, Ac-P-Cit-G˜Hphe-OL-Ahxh-Ac[C14] (not fully specified)
T16 chain: PXGXXL

[10] = molecular target: T17, Ac-Oic-LG˜LL-Ahxh-Ac[C14] (not fully specified)
T17 chain: XLGLL

Ac-PLG˜LWA-Ahxh-Ac[C14] = molecular target: T18, Ac-PLG˜LWA-Ahxh-Ac[C14] (not fully specified)
T18 chain: PLGLWA

[11] = molecular target: T19, Ac-P-Cit-G˜Hphe-Cit-L-Ahxh-Hynic (not fully specified)
T19 chain: PXGXXL

Ac-PRG˜LLT-Ahxh-Hynic = molecular target: T20, Ac-PRG˜LLT-Ahxh-Hynic
T20 chain: PRGLLT

[12] = molecular target: T21, H-γ-DGlu-PLG-LYT-Ahxh-Hynic (not fully specified)
T21 chain: EPLGLYT

[13] = molecular target: T22, NLys-NLys-PLG˜Hphe-YL-Ahxh-Hynic
T22 chain: XXPLGXYL

Ac-PR-Cit˜LSA-Ahxh-Hynic = molecular target: T23, Ac-PR-Cit˜LSA-Ahxh-Hynic
T23 chain: PRXLSA

[14] = molecular target: T24, Ac-P-Cit-G˜Abu-LA-Ahxh-Hynic (not fully specified)
T24 chain: PXGXLA

[15] = molecular target: T25, Ac-PLG˜S(OBn)-LL-Ahxh-Ac[C14] (not fully specified)
T25 chain: PLGSLL

[16] = molecular target: T26, Ac-P-Cit-G˜Chg-LA-Ahxh-Hynic (not fully specified)
T26 chain: PXGXLA

[17] = molecular target: T27, Ac-PLG˜Hphe-RLA-Ambh-Hynic
T27 chain: PLGXRLA

Ac-PLG˜LHL-Ahxh-Hynic = molecular target: T28, Ac-PLG˜LHL-Ahxh-Hynic
T28 chain: PLGLHL

[18] = molecular target: T29, Ac-P-Cit-G˜Aib-LA-Ahxh-Hynic (not fully specified)
T29 chain: PXGXLA

Ac-PLG˜LL-Ahxh-Ac[C14] = molecular target: T30, Ac-PLG˜LL-Ahxh-Ac[C14] (not fully specified)
T30 chain: PLGLL

[19] = molecular target: T31, Ac-P-NLys-R˜LTA-Ahxh-Hynic (not fully specified)
T31 chain: PXRLTA

[20] = molecular target: T32, Ac-POG˜Hphe-LTR-Ahxh-Hynic
T32 chain: PXGXLTR

[21] = molecular target: T33, Ac-P-DArg-R˜LTA-Ahxh-Hynic (not fully specified)
T33 chain: PRRLTA

[22] = molecular target: T34, Ac-PLG˜Hphe-YL-Ambh-Hynic
T34 chain: PLGXYL

[23] = molecular target: T35, Ac-POG˜Hphe-LTR-Ahxh-Ac[C14]
T35 chain: PXGXLTR

Ac-P-Cit-G˜Hphe-LQ-Hynic = molecular target: T36, Ac-P-Cit-G˜Hphe-LQ-Hynic (not fully specified)
T36 chain: PXGXLQ

[24] = molecular target: T37, Ac-P-Cit-G˜Hphe-LA-Ahxh-Ac[C14] (not fully specified)
T37 chain: PXGXLA

Ac-PLG˜LRA-Ahxh-Hynic = molecular target: T38, Ac-PLG˜LRA-Ahxh-Hynic (not fully specified)
T38 chain: PLGLRA

[25] = molecular target: T39, Ac-PLG˜Hphe-YLR-Ahxh-Hynic
T39 chain: PLGXYLR

Ac-PLG˜Hphe-YL-Hynic = molecular target: T40, Ac-PLG˜Hphe-YL-Hynic
T40 chain: PLGXYL

[26] = molecular target: T41, Ac-Tic-Cit-G˜Hphe-SA-Ahxh-Hynic
T41 chain: XXGXSA

[27] = molecular target: T42, Ac-POG˜Hphe-Smc-T-Ahxh-Hynic
T42 chain: PXGXXT

[28] = molecular target: T43, Ac-P-Cha-G˜Smc-HA-Ahxh-Hynic (not fully specified)
T43 chain: PXGXHA

[29] = molecular target: T44, Ac-PLG˜Hphe-YL-Ahxh-Hynic (not fully specified)
T44 chain: PLGXYL

[30] = molecular target: T45, Ac-P-Cit-G˜S(OBn)-LA-Ahxh-Ac[C14] (not fully specified)
T45 chain: PXGSLA

Ac-PRQ˜ITA-Ahxh-Hynic = molecular target: T46, Ac-PRQ˜ITA-Ahxh-Hynic
T46 chain: PRQITA

[31] = molecular target: T47, Ac-P-Cha-G˜Hphe-Cit-L-Ahxh-Ac[C14] (not fully specified)
T47 chain: PXGXXL

[32] = molecular target: T48, Ac-PLG˜Hphe-R-Ahxh-Ac[C14] (not fully specified)
T48 chain: PLGXR

[33] = molecular target: T49, Hynic-ff-Ahx-PLG˜Hphe-OLEE-OH
T49 chain: FFXPLGXXLEE

[34] = molecular target: T50, Ac-Inp-Cit-G˜Hphe-LA-Ahxh-Hynic (not fully specified)
T50 chain: XXGXLA

Ac-PLG˜LYQ-Ahxh-Ac[C14] = molecular target: T51, Ac-PLG˜LYQ-Ahxh-Ac[C14] (not fully specified)
T51 chain: PLGLYQ

B1: human MMP-9 (protein)
chain: MRTPRCGVPDLGRFQTFEGDLKWHHHNITYWIQNYSEDLPRAVIDDAFARAFALWSAVTPLTFTRVYSRDADIVIQFGVAEHGDGYPFDGKDGLLAHAFPPGPGIQGDAHFDDDELWSLGKGVVVPTRFGNADGAACHFPFIFEGRSYSACTTDGRSDGLPWCSTTANYDTDDRFGFCPSERLYTQDGNADGKPCQFPFIFQGQSYSACTTDGRSDGYRWCATTANYDRDKLFGFCPTRADSTVMGGNSAGELCVFPFTFLGKEYSTCTSEGRGDGRLWCATTSNFDSDKKWGFCPDQGYSLFLVAAHEFGHALGLDHSSVPEALMYPMYRFTEGPPLHKDDVNGIRHLYGPRPEPEPRPPTTTTPQPTAPPTVCPTGPPTVHPSERPTAGPTGPPSAGPTGPPTAGPSTATTVPLSPVDDACNVNIFDAIAEIGNQLYLFKDGKYWRFSEGRGSRPQGPFLIADKWPALPRKLDSVFEERLSKKLFFFSGRQVWVYTGASVLGPRRLDKLGLGADVAQVTGALRSGRGKMLLFSGRRLWRFDVKAQMVDPRSASEVDRMFPGVPLDTHDVFQYREKAYFCQDRFYWRVSSRSELNQVDQVGYVTYDILQCPED
[1]
  Kcat/Km: 77500 M⁻¹ s⁻¹
Ac-PLG˜LRL-Ahxh-Hynic
  Kcat/Km: 167000 M⁻¹ s⁻¹
[2]
  Kcat/Km: 213000 M⁻¹ s⁻¹
Ac-LRY˜Cha-TA-Ahxh-Hynic
  Kcat/Km: 811 M⁻¹ s⁻¹
Ac-P-Cit-G-Hphe-LA-Hynic
  Kcat/Km: > 250000 M⁻¹ s⁻¹
Ac-PLG˜LLA-Ahxh-Hynic
  Kcat/Km: 226000 M⁻¹ s⁻¹
Ac-PL-DAla˜LL-Ahxh-Hynic
  Kcat/Km: 0 M⁻¹ s⁻¹
Ac-PLG˜LYA-Ahxh-Hynic
  Kcat/Km: 512000 M⁻¹ s⁻¹
[3]
  Kcat/Km: 195000 M⁻¹ s⁻¹
[4]
  Kcat/Km: 29300 M⁻¹ s⁻¹
[5]
  Kcat/Km: 1990 M⁻¹ s⁻¹
[6]
  Kcat/Km: 0 M⁻¹ s⁻¹
[7]
  Kcat/Km: 187000 M⁻¹ s⁻¹
Ac-PLG˜LR-Ahxh-Hynic
  Kcat/Km: 143000 M⁻¹ s⁻¹
[8]
  Kcat/Km: 584000 M⁻¹ s⁻¹
[9]
  Kcat/Km: 28600 M⁻¹ s⁻¹
[10]
  Kcat/Km: 0 M⁻¹ s⁻¹
Ac-PLG˜LWA-Ahxh-Ac[C14]
  Kcat/Km: > 750000 M⁻¹ s⁻¹
[11]
  Kcat/Km: 11400 M⁻¹ s⁻¹
Ac-PRG˜LLT-Ahxh-Hynic
  Kcat/Km: 73300 M⁻¹ s⁻¹
[12]
  Kcat/Km: 59400 M⁻¹ s⁻¹
[13]
  Kcat/Km: 33800 M⁻¹ s⁻¹
Ac-PR-Cit˜LSA-Ahxh-Hynic
  Kcat/Km: 40100 M⁻¹ s⁻¹
[14]
  Kcat/Km: 20600 M⁻¹ s⁻¹
[15]
  Kcat/Km: > 500000 M⁻¹ s⁻¹
[16]
  Kcat/Km: 20700 M⁻¹ s⁻¹
[17]
  Kcat/Km: 4550 M⁻¹ s⁻¹
Ac-PLG˜LHL-Ahxh-Hynic
  Kcat/Km: 156000 M⁻¹ s⁻¹
[18]
  Kcat/Km: 772 M⁻¹ s⁻¹
Ac-PLG˜LL-Ahxh-Ac[C14]
  Kcat/Km: 134000 M⁻¹ s⁻¹
[19]
  Kcat/Km: 0 M⁻¹ s⁻¹
[20]
  Kcat/Km: 105000 M⁻¹ s⁻¹
[21]
  Kcat/Km: 0 M⁻¹ s⁻¹
[22]
  Kcat/Km: 190000 M⁻¹ s⁻¹
[23]
  Kcat/Km: 246000 M⁻¹ s⁻¹
Ac-P-Cit-G˜Hphe-LQ-Hynic
  Kcat/Km: 79600 M⁻¹ s⁻¹
[24]
  Kcat/Km: 652000 M⁻¹ s⁻¹
Ac-PLG˜LRA-Ahxh-Hynic
  Kcat/Km: > 500000 M⁻¹ s⁻¹
[25]
  Kcat/Km: 243000 M⁻¹ s⁻¹
Ac-PLG˜Hphe-YL-Hynic
  Kcat/Km: > 100000 M⁻¹ s⁻¹
[26]
  Kcat/Km: 1880 M⁻¹ s⁻¹
[27]
  Kcat/Km: 85400 M⁻¹ s⁻¹
[28]
  Kcat/Km: > 250000 M⁻¹ s⁻¹
[29]
  Kcat/Km: > 100000 M⁻¹ s⁻¹
[30]
  Kcat/Km: > 500000 M⁻¹ s⁻¹
Ac-PRQ˜ITA-Ahxh-Hynic
  Kcat/Km: 3520 M⁻¹ s⁻¹
[31]
  Kcat/Km: > 500000 M⁻¹ s⁻¹
[32]
  Kcat/Km: > 500000 M⁻¹ s⁻¹
[33]
  Kcat/Km: 6680 M⁻¹ s⁻¹
[34]
  Kcat/Km: 1650 M⁻¹ s⁻¹
Ac-PLG˜LYQ-Ahxh-Ac[C14]
  Kcat/Km: 658000 M⁻¹ s⁻¹
